From paper PMC7864929, “Crystal structure of the human PRPK–TPRKB complex” (Communications Biology, 2021)
Residue numbers refer to the chain shown, from its start. Names and notes keep the numbering of the source.

T1: MBP-tagged OSGEP (human, UniProt Q9NPF4 1-335)
T1 construct: human OSGEP (gene bought from DNAsu); Cloned into a modified pMal-c2X vector; also called MBP-OSGEP; Kae1 (yeast ortholog); source: E. coli BL21-CodonPlus (DE3), purified (amylose resin, HiTrap Q anion exchange)
T1 sequence (looked up): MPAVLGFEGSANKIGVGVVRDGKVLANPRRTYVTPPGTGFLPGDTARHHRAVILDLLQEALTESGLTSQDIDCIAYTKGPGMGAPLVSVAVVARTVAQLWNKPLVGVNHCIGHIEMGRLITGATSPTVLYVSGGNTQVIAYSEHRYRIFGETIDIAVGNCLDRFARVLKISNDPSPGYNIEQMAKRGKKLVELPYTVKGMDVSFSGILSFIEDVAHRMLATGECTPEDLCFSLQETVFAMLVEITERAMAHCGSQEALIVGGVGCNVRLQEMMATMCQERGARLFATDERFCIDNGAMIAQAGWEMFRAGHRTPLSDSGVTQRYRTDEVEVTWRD

B1: GST-tagged PRPK S250A (enzyme, human, UniProt Q96S44 1-253, looked up)
chain: MAAARATTPADGEEPAPEAEALAAARERSSRFLSGLELVKQGAEARVFRGRFQGRAAVIKHRFPKGYRHPALEARLGRRRTVQEARALLRCRRAGISAPVVFFVDYASNCLYMEEIEGSVTVRDYIQSTMETEKTPQGLSNLAKTIGQVLARMHDEDLIHGDLTTSNMLLKPPLEQLNIVLIDFGLSFISALPEDKGVDLYVLEKAFLSTHPNTETVFEAFLKSYSTSSKKARPVLKKLDEVRLRGRKRAMVG
notes: human p53-related protein kinase (PRPK, TP53RK) with S250A; source: E. coli BL21 lysate, captured on glutathione Sepharose 4B resin
B2: GST-tagged PRPK (wild type) (enzyme, human, UniProt Q96S44 1-253, looked up)
chain: B1 chain with A250S
notes: human p53-related protein kinase (PRPK, TP53RK); Cloned into pGEX-6p-1; Parent of the GST-PRPK mutants; also called GST-PRPK; TP53RK; source: E. coli BL21 lysate, captured on glutathione Sepharose 4B resin
B3: GST-tagged PRPK R80A (enzyme, human, UniProt Q96S44 1-253, looked up)
chain: B1 chain with R80A, A250S
notes: human p53-related protein kinase (PRPK, TP53RK) with R80A; source: E. coli BL21 lysate, captured on glutathione Sepharose 4B resin
B4: GST-tagged PRPK K65A (enzyme, human, UniProt Q96S44 1-253, looked up)
chain: B1 chain with K65A, A250S
notes: human p53-related protein kinase (PRPK, TP53RK) with K65A; source: E. coli BL21 lysate, captured on glutathione Sepharose 4B resin
B5: GST-tagged PRPK S250E (enzyme, human, UniProt Q96S44 1-253, looked up)
chain: B1 chain with A250E
notes: human p53-related protein kinase (PRPK, TP53RK) with S250E; source: E. coli BL21 lysate, captured on glutathione Sepharose 4B resin
B6: GST-tagged PRPK K205A (enzyme, human, UniProt Q96S44 1-253, looked up)
chain: B1 chain with K205A, A250S
notes: human p53-related protein kinase (PRPK, TP53RK) with K205A; source: E. coli BL21 lysate, captured on glutathione Sepharose 4B resin

Molecular target: T1, MBP-tagged OSGEP
Assay: pull-down; GST-tagged PRPK proteins captured on 20 µl glutathione Sepharose 4B from BL21 lysates, then incubated with about 15 µg purified His-TPRKB or MBP-OSGEP; 20 mM Tris-HCl pH 8.0, 300 mM NaCl, 0.1% Nonidet P-40, 5% glycerol, 2 mM DTT, 0.4 mM PMSF; 2 h at 4°C; 4 washes; Western blot with anti-His or anti-MBP
Conditions: both partners purified

**Q.** Does B1 bind?
**A.** Result: binds

**Q.** Does B2 bind?
**A.** Result: binds

**Q.** Does B3 bind?
**A.** Result: binds

**Q.** Does B4 bind?
**A.** Result: binds

**Q.** Does B5 bind?
**A.** Result: binds

**Q.** Does B6 bind?
**A.** Result: binds
